The target of experiment [1] is NbALFA^ST (NbALFA clone 1G5). Nature of the experiment: peptide elution from NbALFA^ST resin; tag position M.
Experiment [2] deals with NbALFA^ST (NbALFA clone 1G5). Nature of the experiment: peptide elution from NbALFA^ST resin; tag position N.

Where no end group is shown, it is not given here. Bounds are passed on as bounds.

NbALFA^ST (NbALFA clone 1G5), sequence (VHH, as listed by the source): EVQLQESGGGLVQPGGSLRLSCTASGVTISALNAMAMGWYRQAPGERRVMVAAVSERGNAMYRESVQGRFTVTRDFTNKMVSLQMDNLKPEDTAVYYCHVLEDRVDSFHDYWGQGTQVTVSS

With DSGPLEQELRRRLPTA [ds…a (SEQ ID NO: 107)], the t1/2 in experiment [1] was < 2 min. Same read-out and setting: the figure for PDSGLEQELRRRLPTA [pd…a (SEQ ID NO: 104)] is < 2 min; for DSGRLEEELRSPG [dsGRLEEELR---SPg (SEQ ID NO: 96)] it is < 2 min; for SDSGLEEEARRRLSPG [sd…g (SEQ ID NO: 97)] it is < 2 min. Regarding SDSGEELRRRLSPG [sdSG--…g (SEQ ID NO: 93)], the t1/2 in experiment [1] is < 2 min. Still for that read-out and setting: then DSGRLEQEIRRELSPG [ds…g (SEQ ID NO: 103)], with < 2 min; and DPSGLEQELRRRLPTA [dp…a (SEQ ID NO: 105)], with < 2 min. For DSPGLEQELRRRLPTA [ds…a (SEQ ID NO: 106)], in experiment [1], the t1/2 is < 2 min. Turning to DSGRLEQEIRRQLSPG [ds…g (SEQ ID NO: 102)], the t1/2 in experiment [1] is < 2 min. MSAVEEELRRRLSPS (not fully specified (residue 15); printed as MSAVEEELRRRLSPs) […s (SEQ ID NO: 109)]: the t1/2 in experiment [2] was < 2 min. As for DSGALEQEIRRRLSPG [ds…g (SEQ ID NO: 100)], the t1/2 in experiment [1] is < 2 min. With MSSAVEEELRRRLSPS (not fully specified (residues 2, 16); printed as MsSAVEEELRRRLSPs) [Ms…s (SEQ ID NO: 113)], the t1/2 in experiment [2] is < 2 min. Turning to DSGRLEEELRRRSPG [ds…-SPg (SEQ ID NO: 94)], the t1/2 in experiment [1] was < 2 min.

In the case of MPSAVEEELRRRLSPS (not fully specified (residues 2, 16); printed as MpSAVEEELRRRLSPs) [Mp…s (SEQ ID NO: 112)], in experiment [2], the t1/2 is < 2 min.

In the case of MSAVEEELRRRLSPS (not fully specified (residue 15); printed as MSAVEEELRRRLSPs) […s (SEQ ID NO: 111)], in experiment [2], the t1/2 was < 2 min.

Take SDSGAEEELRRRLSPG [sd…g (SEQ ID NO: 98)]: in experiment [1], the t1/2 is < 2 min. Turning to SDSGEEELRRRLSPG [sdSG-…g (SEQ ID NO: 92)], the t1/2 in experiment [1] is < 2 min. On to DSGRLEEELRRSPG [ds…--SPg (SEQ ID NO: 95)], for which the t1/2 in experiment [1] is < 2 min.

As for DSGRLEQEIRRALSPG [ds…g (SEQ ID NO: 101)], the t1/2 in experiment [1] was < 2 min.

In the case of DSGALEEELRRRLSPG [ds…g (SEQ ID NO: 99)], the t1/2 in experiment [1] is < 2 min.
